The target in assay [1] is T1, His-tagged LDHA (human, UniProt P00338 1-332). The experiment in a line: pull-down; GST pull-down: GST-tagged protein on glutathione-sepharose resin incubated with His-tagged protein, 4 °C, 3 h. The conditions noted are these: both partners purified.
Assay [2] concerns the target T1, His-tagged LDHA. Briefly: pull-down; recombinant proteins from E. coli (Supplementary Fig. 3d,e); which partner was immobilised is not given. To be noted: both partners purified.

Residue numbers refer to the chain shown, from its start. Numbers in names are those of the source.

B1: GST-tagged hCINAP (enzyme, human, UniProt Q9Y3D8 1-172, looked up)
chain: MLLPNILLTGTPGVGKTTLGKELASKSGLKYINVGDLAREEQLYDGYDEEYDCPILDEDRVVDELDNQMREGGVIVDYHGCDFFPERWFHIVFVLRTDTNVLYERLETRGYNEKKLTDNIQCEIFQVLYEEATASYKEEIVHQLPSNKPEELENNVDQILKWIEQWIKDHNS
notes: hCINAP (adenylate kinase 6, AK6), human cDNA, wild type; Vector pGEX4T1 is named in the plasmids section; also called GST-hCINAP; glutathione S-transferase-tagged hCINAP; source: E. coli BL21(DE3), purified
As for B1, the binding result in the assay with His-tagged LDHA [1] is “binds”.

B2: GST-tagged hCINAP (H79G) (enzyme, human, UniProt Q9Y3D8 1-172, looked up)
chain: B1 chain with H79G
notes: hCINAP (adenylate kinase 6, AK6), human cDNA, H79G mutant with impaired adenylate kinase activity; also called H79G mutant hCINAP; source: E. coli BL21(DE3), purified
For the molecule B2, the binding result in the assay with His-tagged LDHA [2] is on record as “binds”.

The values above are taken from PMC5454382 (Nature Communications, 2017).
